Patent US20170355730

Tests used:
[1] = biological target: T1, R9-PCP
T1 chain: RRRRRRRRRXDEXLI

[2] = biological target: T2, cFΦR4-PCP (not fully specified)
T2 chain: FXRRRRQXDEXLI

[3] = biological target: T3, Antp-PCP
T3 chain: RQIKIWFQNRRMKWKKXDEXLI

Protein	kcat/KM [1] [M⁻¹ s⁻¹]	kcat/KM [2] [M⁻¹ s⁻¹]	kcat/KM [3] [M⁻¹ s⁻¹]
CD45 (protein) YKIYDLHKKRSCNLDEQQELVERDDEKQLMNVEPIHADILLETYKRKIADEGRLFLAEFQSIPRVFSKFPIKEARKPFNQNKNRYVDILPYDYNRVELSEINGDAGSNYINASYIDGFKEPRKYIAAQGPRDETVDDFWRMIWEQKATVIVMVTRCEEGNRNKCAEYWPSMEEGTRAFGDVVVKINQHKRCPDYIIQKLNIVNKKEKATGREVTHIQFTSWPDHGVPEDPHLLLKLRRRVNAFSNFFSGPIVVHCSAGVGRTGTYIGIDAMLEGLEAENKVDVYGYVVKLRRQRCLMVQVEAQYILIHQALVEYNQFGETEVNLSELHPYLHNMKKRDPPSEPSPLEAEFQRLPSYRSWRTQHIGNQEENKSKNRNSNVIPYDYNRVPLKHELEMSKESEHDSDESSDDDSDSEEPSKYINASFIMSYWKPEVMIAAQGPLKETIGDFWQMIFQRKVKVIVMLTELKHGDQEICAQYWGEGKQTYGDIEVDLKDTDKSSTYTLRVFELRHSKRKDSRTVYQYQYTNWSVEQLPAEPKELISMIQVVKQKLPQKNSSEGNKHHKSTPLLIHCRDGSQQTGIFCALLNLLESAETEEVVDIFQVVKALRKARPGMVSTFEQYQFLYDVIASTYPAQNGQVKKNNHQEDKIEFDNEVDKVKQDANCVNPLGAPEKLPEAKEQAEGSEPTSGTEGPEHSVNGPASPALNQGS	2940	35100	22300
VHR (protein) MSGSFELSVQDLNDLLSDGSGCYSLPSQPCNEVTPRIYVGNASVAQDIPKLQKLGITHVLNAAEGRSFMHVNTNANFYKDSGITYLGIKANDTQEFNLSAYFERAADFIDQALAQKNGRVLVHCREGYSRSPTLVIAYLMMRQKMDVKSALSIVRQNREIGPNDGFLAQLCQLNDRLAKEGKLKP	6240	2460	2030
PTP1B (construct not stated) (protein) MEMEKEFEQIDKSGSWAAIYQDIRHEASDFPCRVAKLPKNKNRNRYRDVSPFDHSRIKLHQEDNDYINASLIKMEEAQRSYILTQGPLPNTCGHFWEMVWEQKSRGVVMLNRVMEKGSLKCAQYWPQKEEKEMIFEDTNLKLTLISEDIKSYYTVRQLELENLTTQETREILHFHYTTWPDFGVPESPASFLNFLFKVRESGSLSPEHGPVVVHCSAGIGRSGTFCLADTCLLLMDKRKDPSSVDIKKVLLEMRKFRMGLIQTADQLRFSYLAVIEGAKFIMGDSSVQDQWKELSHEDLEPPPEHIPPPPRPPKRILEPHN	14700	37100	17400
TCPTP (protein) MPTTIEREFEELDTQRRWQPLYLEIRNESHDYPHRVAKFPENRNRNRYRDVSPYDHSRVKLQNAENDYINASLVDIEEAQRSYILTQGPLPNTCCHFWLMVWQQKTKAVVMLNRIVEKESVKCAQYWPTDDQEMLFKETGFSVKLLSEDVKSYYTVHLLQLENINSGETRTISHFHYTTWPDFGVPESPASFLNFLFKVRESGSLNPDHGPAVIHCSAGIGRSGTFSLVDTCLVLMEKGDDINIKQVLLNMRKYRMGLIQTPDQLRFSYMAIIEGAKCIKGDSSIQKRWKELSKEDLSPAFDHSPNKIMTEKYN	457	2780	970
SHP2 (protein) AEIESRVRELSKLAETTDKVKQGFWEEFETLQQQECKLLYSRKEGQRQENKNKNRYKNILPFDHTRVVLHDGDPNEPVSDYINANIIMPEFETKCNNSKPKKSYIATQGCLQNTVNDFWRMVFQENSRVIVMTTKEVERGKSKCVKYWPDEYALKEYGVMRVRNVKESAAHDYTLRELKLSKVGQGNTERTVWQYHFRTWPDHGVPSDPGGVLDFLEEVHHKQESIMDAGPVVVHCSAGIGRTGTFIVIDILIDIIREKGVDCDIDVPKTIQMVRSQRSGMVQTEAQYRFIYMAVQHYIETLQRR	248	7400	2210
